Measurements reported in patent US20190031748A1.

Legend:
[1] = molecular target: N-terminal biotin labelled human CGRP (Abgent Custom Synthesized Peptide #355061532) (human) (UniProt P06881); assay: ELISA; Fab captured on anti-human kappa; N-terminal biotin CGRP at 6.667 nM; 2 h dissociation step; neutravidin-AP detection
[2] = molecular target: N-terminal biotin labelled human CGRP (Abgent Custom Synthesized Peptide #355061532) (human) (UniProt P06881); assay: ELISA; Fab captured on anti-human kappa; N-terminal biotin CGRP at 0.009 nM; 2 h dissociation step; neutravidin-AP detection
[3] = molecular target: N-terminal biotin labelled human CGRP (Abgent Custom Synthesized Peptide #355061532) (human) (UniProt P06881); assay: ELISA; Fab captured on anti-human kappa; N-terminal biotin CGRP at 0.082 nM; 2 h dissociation step; neutravidin-AP detection
[4] = molecular target: N-terminal biotin labelled human CGRP (Abgent Custom Synthesized Peptide #355061532) (human) (UniProt P06881); assay: ELISA; Fab captured on anti-human kappa; N-terminal biotin CGRP at 0.741 nM; 2 h dissociation step; neutravidin-AP detection
[5] = molecular target: N-terminal biotin labelled human CGRP (Abgent Custom Synthesized Peptide #355061532) (human) (UniProt P06881); assay: ELISA; Fab captured on anti-human kappa; N-terminal biotin CGRP at 0.247 nM; 2 h dissociation step; neutravidin-AP detection
[6] = molecular target: N-terminal biotin labelled human CGRP (Abgent Custom Synthesized Peptide #355061532) (human) (UniProt P06881); assay: ELISA; Fab captured on anti-human kappa; N-terminal biotin CGRP at 0.027 nM; 2 h dissociation step; neutravidin-AP detection
[7] = molecular target: N-terminal biotin labelled human CGRP (Abgent Custom Synthesized Peptide #355061532) (human) (UniProt P06881); assay: ELISA; Fab captured on anti-human kappa; N-terminal biotin CGRP at 2.222 nM; 2 h dissociation step; neutravidin-AP detection
[8] = molecular target: N-terminal biotin labelled human CGRP (Abgent Custom Synthesized Peptide #355061532) (human) (UniProt P06881); assay: ELISA; Fab captured on anti-human kappa; N-terminal biotin CGRP at 20 nM; 2 h dissociation step; neutravidin-AP detection
human CGRP (human) [9] = molecular target: human CGRP (human) (UniProt P06881); assay: Quanterix Simoa sandwich assay; Antibody II beads capture, biotinylated CA11 detection; CGRP at 0.07 pg/mL
human CGRP (human) [10] = molecular target: human CGRP (human) (UniProt P06881); assay: Quanterix Simoa sandwich assay; Antibody II beads capture, biotinylated CA11 detection; CGRP at 1.85 pg/mL
human CGRP (human) [11] = molecular target: human CGRP (human) (UniProt P06881); assay: Quanterix Simoa sandwich assay; Antibody II beads capture, biotinylated CA11 detection; CGRP at 16.67 pg/mL
human CGRP (human) [12] = molecular target: human CGRP (human) (UniProt P06881); assay: Quanterix Simoa sandwich assay; Antibody II beads capture, biotinylated CA11 detection; CGRP at 0.0076 pg/mL
human CGRP (human) [13] = molecular target: human CGRP (human) (UniProt P06881); assay: Quanterix Simoa sandwich assay; Antibody II beads capture, biotinylated CA11 detection; CGRP at 50 pg/mL
human CGRP (human) [14] = molecular target: human CGRP (human) (UniProt P06881); assay: Quanterix Simoa sandwich assay; Antibody II beads capture, biotinylated CA11 detection; CGRP at 5.56 pg/mL
human CGRP (human) [15] = molecular target: human CGRP (human) (UniProt P06881); assay: Quanterix Simoa sandwich assay; Antibody II beads capture, biotinylated CA11 detection; CGRP at 0.02 pg/mL
human CGRP (human) [16] = molecular target: human CGRP (human) (UniProt P06881); assay: Quanterix Simoa sandwich assay; Antibody II beads capture, biotinylated CA11 detection; CGRP at 0.21 pg/mL
human CGRP (human) [17] = molecular target: human CGRP (human) (UniProt P06881); assay: Quanterix Simoa sandwich assay; Antibody II beads capture, biotinylated CA11 detection; CGRP at 0.62 pg/mL

A560 [1] [A560]	A560 [2] [A560]	A560 [3] [A560]	A560 [4] [A560]	A560 [5] [A560]	A560 [6] [A560]	A560 [7] [A560]	A560 [8] [A560]	Average AEB (AEB (average enzyme per bead)) (human CGRP (human) [9])	Average AEB (AEB (average enzyme per bead)) (human CGRP (human) [10])	Average AEB (AEB (average enzyme per bead)) (human CGRP (human) [11])	Average AEB (AEB (average enzyme per bead)) (human CGRP (human) [12])	Average AEB (AEB (average enzyme per bead)) (human CGRP (human) [13])	Average AEB (AEB (average enzyme per bead)) (human CGRP (human) [14])	Average AEB (AEB (average enzyme per bead)) (human CGRP (human) [15])	Average AEB (AEB (average enzyme per bead)) (human CGRP (human) [16])	Average AEB (AEB (average enzyme per bead)) (human CGRP (human) [17])	Binder
1.03	0.082	0.091	0.356	0.165	0.063	0.688	1.05										CA11 Fab (Fab, V domains shown) VH: EVQLQQSGPELVKPGASVKMSCKASGYTFTRSVMHWVKQKPGQGLEWIGYINPYNDGTKYNEKFKGKATLTSDKSSSTAYMELSSLTSEDSAVYYCAKSGNDGYWGQGTTLTVSS VL: EIVLTQSPTTMAASPGEKITITCSASSSISSIYLHWYQQKPGFSPKVLIYRAKNLASGVPARFSGSGSGTSYSLTIGTMEAEDVATYYCQQGSTIPFTFGSGTKLEIK
								0.011	0.13	1.18	0.0079	2.99	0.42	0.0075	0.02	0.06	CA11 antibody (mouse IgG1/kappa) (antibody, V domains shown) VH: EVQLQQSGPELVKPGASVKMSCKASGYTFTRSVMHWVKQKPGQGLEWIGYINPYNDGTKYNEKFKGKATLTSDKSSSTAYMELSSLTSEDSAVYYCAKSGNDGYWGQGTTLTVSS VL: EIVLTQSPTTMAASPGEKITITCSASSSISSIYLHWYQQKPGFSPKVLIYRAKNLASGVPARFSGSGSGTSYSLTIGTMEAEDVATYYCQQGSTIPFTFGSGTKLEIKR
